The target in assay [1] is T1, recombinant soluble 1968 H3 HA (A/Aichi/2/1968) (Influenza A virus A/Aichi/2/1968 (H3N2), UniProt P03437 17-530). In words: ELISA, recombinant mAb.
In assay [2] the target is T2, recombinant soluble trimeric 1918 H1 HA (A/South Carolina/1/1918, wild type) (Influenza A virus A/South …, UniProt Q9WFX3 18-529). Description: ELISA, supernate. (In general: An ELISA detects its analyte on a solid surface through an enzyme-linked reagent.)
For assay [3], the target named is T1, recombinant soluble 1968 H3 HA …. In words: ELISA, supernate.
Assay [4] deals with T2, recombinant soluble trimeric 1918 H1 HA …. In words: ELISA, supernate. The source holds these as a separate data set.
Assay [5] concerns the target T1, recombinant soluble 1968 H3 HA …. Description: ELISA, supernate. This is another data set of the same source.
Assay [6] has as its target T2, recombinant soluble trimeric 1918 H1 HA …. Description: ELISA, supernate. This is another data set of the same source.
Assay [7] deals with T1, recombinant soluble 1968 H3 HA …. Description: ELISA, unconcentrated supernate.
Assay [8] has as its target HA of A/South Carolina/1/1918 (H1N1), wild type, on VLP (Influenza A virus A/South …, UniProt Q9WFX3 18-566). In words: cell-based or functional assay.
The target of assay [9] is HA of A/swine/Iowa/15/1930 (H1N1) virus (Influenza A virus (H1N1)). Description: cell-based or functional assay.
For assay [10], the target named is T3, HA of A/California/04/2009 (H1N1) virus (Influenza A virus (H1N1)). In words: cell-based or functional assay.
For assay [11], the target named is HA of A/New Caledonia/20/1999 (H1N1) virus (Influenza A virus (H1N1)). Description: cell-based or functional assay.
The target in assay [12] is HA of A/New Jersey/11/1976 (H1N1) virus (Influenza A virus (H1N1)). Description: cell-based or functional assay.
Assay [13] deals with HA of A/Weiss/1943 (H1N1) virus (Influenza A virus (H1N1)). Description: cell-based or functional assay.
Assay [14] deals with HA of A/Brisbane/59/2007 (H1N1) virus (Influenza A virus (H1N1)). In words: cell-based or functional assay.
Assay [15] concerns the target HA of A/L3/1947 (H1N1) virus (Influenza A virus (H1N1)). Description: cell-based or functional assay.
The target of assay [16] is HA of A/USSR/92/1977 (H1N1) virus (Influenza A virus (H1N1)). In words: cell-based or functional assay.
The target in assay [17] is T1, recombinant soluble 1968 H3 HA …. Description: ELISA, supernate. This is another data set of the same source.
For assay [18], the target named is T2, recombinant soluble trimeric 1918 H1 HA …. In words: ELISA, supernate. The source holds these as a separate data set.
Assay [19] deals with HA of A/Ann Arbor/7/1967 (H2N2) virus (Influenza A virus (H2N2)). In words: cell-based or functional assay.
Assay [20] deals with HA of A/Japan/305/1957 (H2N2) virus (Influenza A virus (H2N2), UniProt P03451 16-562). In words: cell-based or functional assay.
The target in assay [21] is HA of A/Rockville Illinois/5/1957 (H2N2) virus (Influenza A virus (H2N2)). In words: cell-based or functional assay.
Assay [22] addresses HA of A/swine/Missouri/2124514/2006 (H2N3) virus (Influenza A virus (H2N3)). In words: cell-based or functional assay.
For assay [23], the target named is HA of A/Albany/6/1958 (H2N2) virus (Influenza A virus (H2N2)). In words: cell-based or functional assay.
The target of assay [24] is HA of A/Hong Kong/1/1968 (H3N2) virus (Influenza A virus (H3N2), UniProt Q91MA7 17-566). Description: cell-based or functional assay.
Assay [25] has as its target T3, HA of A/California/04/2009 (H1N1) virus. In words: cell-based or functional assay. The source holds these as a separate data set.
Assay [26] has as its target HA of A/Netherlands/65/1963 (H2N2) virus (Influenza A virus (H2N2)). In words: cell-based or functional assay.
For assay [27], the target named is HA of A/Ann Arbor/23/1957 (H2N2) virus (Influenza A virus (H2N2)). Description: cell-based or functional assay.
The target of assay [28] is HA of A/Vietnam/1203/2004 (H5N1) virus (Influenza A virus (H5N1)). Description: cell-based or functional assay.
In assay [29] the target is HA of A/Alabama/1/1981 (H3N2) virus (Influenza A virus (H3N2)). In words: cell-based or functional assay.
Assay [30] deals with T1, recombinant soluble 1968 H3 HA …. Description: ELISA, supernate. The source holds these as a separate data set.

Where two headings read alike, the source gives them in different places.

B1: mAb 3N6 (recombinant) (antibody, V domains shown)
VH: QVQLQESGPGLVKPSETLSLTCSVSGGSINYYYWSWIRQPPGKGLECIGYISDTGRTYYNPSLRSRVTISVDTSKNQFSLNLTSMTAADTAVYYCARDPTGSRQKNAFDMWGQGTMVTVS
VL: AIQMTQSPSSLSASVGDRVTITCRASQNIRSYLNWYQQKPGKAPNLLIYGTTSLESGVPSRFSGSGSGTDFTLTISSLQPEDFATYYCQQSYHTPQTFGQGTKVEIKR
For B1, the OD in assay [1] worked out at 0.069 OD.

B2: mAb 6J24 (antibody, V domains shown)
VH: EVQLVESGGGLVQPGRSLRLSCVGSGFNFDGYAMQWVRQVPGKGLEWVSGISWHSDSTGYADSVRGRFTISRDNAKNSLYLQMDSLRPEDTAFYYCGKSIGHVGGSYRHPIDYWGQGTLVTVS
VL: DIQLTQSPSSLSASVGDRVTITCRASQGITDYLAWYQQKPGTIPKLLIYAASTLQSGVPSRFSGGGYGTDFTLTISSLQPEDVATYYCQKYNSAPLTFGGGTKVEIKR
Regarding B2, the OD in [2] was 0.072 OD.

B3: mAb 3E22 (antibody, V domains shown)
VH: EVQLVESGAEVKKPGASVKVSCKASGYTFSRYYIHWVRQAPGQELEWMGWINPDSGDTNYAQKFRGRVTMARDTSISTVYMELNSLRYDDTAVYFCARIIWSSSGMDVWGQGTTVTVS
VL: QSALTQPASVSGSPGQSITISCTGTSSDVGSYNLVSWYQQHPGKAPKLMIYEVSKRPSGVSNRFSGSKSGNTASLTISGLQAEDEADYYCHLYVGSSNWVFGGGTKLAVLG
With B3, the OD in assay [3] came out at 0.379 OD; in assay [4] it was 0.741 OD.

B4: mAb 5J8 (antibody, V domains shown)
VH: EVQLVESGPGLVKPSDILSLTCAVSGYSISSNYYWGWIRQPPGKGLEWIGSIYHSGSTYYKPSLESRLGISVDTSKNQFSLKLSFVSAADTAVYYCARHVRSGYPDTAYYFDKWGQGTLVTVS
VL: SYVLTQPPSVSVAPGETARISCGGNNIGTKVLHWYQQTPGQAPVLVVYDDSDRPSGIPERFSGSNSGNTATLTISRVEVGDEADYYCQVWDISTDQAVFGGGTKLTVLG
For the molecule B4, the OD in [5] was 0.078 OD; in assay [6], 0.262 OD. For the same molecule, in assay [7], the binding result is “no binding”. The HAI activity was 0.04 µg/mL in assay [8]; 0.04 µg/mL in [9]; 0.09 µg/mL in assay [10]; above 20 µg/mL in assay [11]; 0.32 µg/mL in assay [12]; 5 µg/mL in assay [13]. In addition, the values for the HAI activity in assay [14], in assay [15] and in assay [16] were above 20 µg/mL, 0.08 µg/mL and 0.63 µg/mL, respectively. Also, the Neut titer is below 0.025 µg/mL in assay [9]; 0.0017 µg/mL in assay [10]; above 20 µg/mL in assay [11]; 10 µg/mL in [13]; 0.1 µg/mL in [15]; 0.2 µg/mL in assay [16].

B5: mAb 8F8 (antibody, V domains shown)
VH: EVQLLESGGGVVQPGRSLRLSCAASGFMFSSYVMHWVRQPPGKGLEWVAVIWYDGSKTYFADSMRGRLTVSRDNSKNALYLQMNRLRAEDTAVYYCARQQDSGYSGPEVSYYSHYGMDVWGQGTTVIVS
VL: QSVLTQSPSASGTPGRAITISCSGSSSNIGSNPVNWYQQLPGAAPKLLIYADEHRPSGVPDRFSGPKSGTSASLAISGLQSEDEADYYCAAWDDSLSGPAVVFGGGTKLTVLG
As to B5, the values for the OD in [17] and in assay [18] were 0.079 OD and 0.07 OD, respectively. Further, the HAI activity in [19] was above 20 µg/mL; in assay [20], 0.4 µg/mL; in assay [21], 0.4 µg/mL; in assay [22], 0.63 µg/mL; in [23], 0.32 µg/mL; in assay [24] it was above 20 µg/mL. Besides, the HAI activity in assay [25] was above 20 µg/mL; in assay [26], 0.1 µg/mL; in assay [27], 0.1 µg/mL; in assay [28], above 20 µg/mL.

B6: mAb 2G1 (antibody, V domains shown)
VH: EVQLVESGAEVKKPGSSVKVSCKASGGTFITHVFTWVRQAPGQGLEWVGGFIAIFGTSNYAQKFQGRVTITADESTSTAYMELTSLTSEDTAVYYCARGISGSYGWFDPWGQGTLVTVS
VL: DIQLTQSPSSLSASVGDRVTITCQASQDIRKYLNWYQQKPGKAPNLLIYDASNVKTGVPSRFRGSGSGTDFTFTISSLQPEDIATYYCQQYDNLPITFGQGTRLEIKR
For B6, the HAI activity in assay [19] was above 20 µg/mL; in assay [29], above 50 µg/mL; in assay [20], 0.7 µg/mL; in assay [21], 0.2 µg/mL; in [22], 0.63 µg/mL; in [23], 0.32 µg/mL. Also, the HAI activity in assay [24] is 5 µg/mL; in [25] it was above 50 µg/mL; in assay [26], 0.05 µg/mL; in [27] it was 0.025 µg/mL; in assay [28], above 50 µg/mL.

B7: mAb 10E15 (antibody, V domains shown)
VH: EVQLLESGGGVVQPGRSLRLSCAASGFTFRTYGMHWVRQAPGKGLEWVAVISHDGNLKYYGGSVKGRFTISRDNSKNALYLQMNSLRVDDTALYYCARGIGITDAFDIRGQGTMVVVS
VL: QSVLTQPPSVSAAPGQKVTISCSGSSSNIGKNYVSWYQQLPGTAPKLLIYDNDKRPSGIPDRFSGSKSGTSATLGITGLQTGDEADYHCGAWDSSLNGGVFGGGTKVTVLG
On to B7, for which the OD in [30] is 0.074 OD.

(Values after patent publication US20130289246A1 (VANDERBILT UNIVERSITY, published 2013).)
